Test results published in publication PMC12205980.

Target: GP55 (ORF55-encoded replicase of lactococcal phage 1706), full length (lactococcal phage 1706)
Assay: SEC-MALS; Superdex 200 Increase 10/300 GL, 20 mM Tris-HCl pH 8.0, 100 mM NaCl, 1 mM TCEP, 0.5 ml/min; Wyatt Dawn Heleos II; self-association of the Ni-NTA-purified protein

Question: For “GP55 (ORF55-encoded replicase of lactococcal phage 1706), full length (enzyme)”, which stoichiometry N is on record?
Answer: 2
